From patent US20180346580A1 (INTERVET, published 2018) come the findings set out here.

For assay [1], the target named is T1, HIS-tagged extracellular domain of canine IL-4 receptor alpha chain (canine).
T1 construct: also called canine IL-4 receptor alpha chain ECD HIS-tagged protein; extracellular domain of canine IL-4Rα
T1 chain: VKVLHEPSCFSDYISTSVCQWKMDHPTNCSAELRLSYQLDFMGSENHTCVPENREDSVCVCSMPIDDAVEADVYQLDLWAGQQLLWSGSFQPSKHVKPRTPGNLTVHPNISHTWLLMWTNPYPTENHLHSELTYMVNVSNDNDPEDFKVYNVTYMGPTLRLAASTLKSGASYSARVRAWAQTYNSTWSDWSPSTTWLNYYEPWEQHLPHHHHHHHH
The experiment in a line: ELISA on plate-coated HIS-tagged canine IL-4Rα ECD, detection with HRP goat anti-mouse IgG. The protocol: This procedure was repeated as necessary to obtain adequate amounts of mAb from each hybridoma clone. Harvested cell suspensions were centrifuged and the supernatants were filtered through 0.2 micron filter membranes. For antibody purification, each clone's supernatant was purified using a Protein G Sepharose 4 Fast flow 5 mL column (GE Healthcare) by gravity flow. After washing with Tris-EDTA (TE) buffer pH 8.0, bound antibodies were eluted using 0.1 M glycine buffer, pH 2.7, followed by pH neutralization using 1 M Tris, pH 8.0. Antibodies were concentrated and buffer exchanged into phosphate-buffered saline (PBS) using Centriprep YM-10 kDa NMWL centrifugal filter units (Millipore). Antibody concentrations were quantified using spectrophotometry. Purified anti-canine IL-4 receptor α chain mAbs were tested for reactivity with the HIS-tagged ECD domain of canine IL-4 receptor alpha chain by ELISA as follows: HIS-tagged canine IL-4 receptor alpha chain protein is diluted to 10 μg/mL in coating buffer (Carbonate/Bicarbonate pH 9.0) and dispensed at 100 μl/well in 96-well flat bottomed ELISA plates (NUNC). The plates are incubated at 4° C. overnight. The plates are then washed three times with phosphate buffered saline containing 0.05% Tween-20 (PBST). Next, 200 μl of blocking buffer (5% skim milk in PBST) is added to each well and the plates are incubated at 37° C. for 60 minutes. The plates are then washed three times with PBST. Next, 100 μl of test mAbs diluted in blocking buffer is added to the first wells of the appropriate columns. Test mAbs are then diluted three-fold to the appropriate plate position. Following incubation of the plates at 37° C. for 60 minutes, the plates are washed three times with PBST. Next, 100 μl per well of a 1:2,000 dilution of a horseradish peroxidase conjugated goat anti-mouse IgG (KPL) is added to the plates, which are then incubated at 37° C. for 60 minutes. Then the plates are washed three times with PBST, and 100 μl/well of 3,3′,5,5′ tetramethyl benzidine, (TMB) substrate (from KPL) is added to the plates. The color reaction is allowed to develop for 5-20 minutes at 37° C. prior to measuring absorbance at 650 nm.
Various mouse anti-canine IL-4Rα monoclonal antibodies (mAbs) were assayed by ELISA for their ability to bind the extracellular domain of canine IL-4Rα.
A general note: In an ELISA, binding on a coated surface is turned into a signal by an enzyme label.

The target of assay [2] is T2, canine IL-4 receptor alpha chain (full length) expressed on the surface of CHO DG44 cells (canine).
T2 construct: also called cIL-4Rα; CHO-cIL-4Rα
T2 chain: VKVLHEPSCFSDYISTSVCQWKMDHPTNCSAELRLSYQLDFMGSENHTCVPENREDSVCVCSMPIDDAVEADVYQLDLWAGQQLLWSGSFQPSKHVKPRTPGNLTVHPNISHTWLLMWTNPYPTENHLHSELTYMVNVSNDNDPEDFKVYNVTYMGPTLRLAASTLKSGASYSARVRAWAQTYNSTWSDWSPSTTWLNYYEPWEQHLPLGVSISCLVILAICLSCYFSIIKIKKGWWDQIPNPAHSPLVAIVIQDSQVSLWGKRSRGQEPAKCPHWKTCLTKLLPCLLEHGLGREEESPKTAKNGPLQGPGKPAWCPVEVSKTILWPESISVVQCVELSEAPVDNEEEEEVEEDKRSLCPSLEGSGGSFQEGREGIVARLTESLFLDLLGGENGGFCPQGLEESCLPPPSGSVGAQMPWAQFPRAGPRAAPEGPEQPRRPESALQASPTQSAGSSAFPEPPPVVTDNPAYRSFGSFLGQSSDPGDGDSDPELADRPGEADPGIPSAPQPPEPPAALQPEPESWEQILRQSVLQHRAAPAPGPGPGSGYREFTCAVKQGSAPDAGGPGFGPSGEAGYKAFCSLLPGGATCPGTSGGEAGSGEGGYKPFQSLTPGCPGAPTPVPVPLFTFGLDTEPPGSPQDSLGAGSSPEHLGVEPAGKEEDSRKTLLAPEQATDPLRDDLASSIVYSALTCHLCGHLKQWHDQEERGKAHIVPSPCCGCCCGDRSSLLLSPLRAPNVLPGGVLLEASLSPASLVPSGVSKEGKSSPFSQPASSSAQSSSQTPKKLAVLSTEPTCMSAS
The experiment in a line: flow cytometry ligand blockade on CHO-cIL-4Rα cells; competitor biotinylated canine IL-4 at 0.32 µg/mL. The protocol:
Procedure: [0247] 1. CHO-DH44-canIL-4Rα cell grown to 2-4 ×10⁶ cells/mL with more than 96% viability. [0248] 2. The cells were spun down, the supernatant discarded, and the cells were suspended in FACS buffer to 2×10⁷ cells/mL. [0249] 3. The cells were distributed into a U-shape 96-well plate, 50 μl each well. [0250] 4. The anti-canine IL-4Rα mAbs in FACS buffer was diluted three-fold on a 96-well plate from top down to bottom well, starting at 50 μg/mL. [0251] 5. 50 μl of each diluted Ab was transferred into the cell plate and then incubated on ice for 30 min. [0252] 6. The cells were washed twice with FACS buffer. [0253] 7. The cells were resuspended into 100 μl of biotinylated canine IL-4 at 0.32 μg/mL in FACS buffer and incubated on ice for 30 min. [0254] 8. The cells were washed twice with FACS buffer. [0255] 9. The cells were responded into 100 μl of R-phycoerythin conjugated Streptavidin (1:1000 dilution) in FACS buffer and incubated on ice for 30 min. [0256] 10. The cells were washed twice with FACS buffer. [0257] 11. The cells were brought up to 300 μl in FACS buffer. [0258] 12. 10,000 cells were read for each sample by BD Accuri-C6. [0259] 13. The resulting readout were analyzed by FlowJo to get the mean fluorescent intensity (MFI).
Background: Flow cytometry measures light scatter and fluorescence of single cells or particles in a stream.

Assay [3] addresses T2, canine IL-4 receptor alpha chain (full …). The experiment in a line: flow cytometry, binding to CHO-cIL-4Rα cells.

B1: 10E10 (antibody, V domains shown)
VH: QVQLQQSGPELVKPGASVKLSCKASGYTFTTYDIHWVKQRPGQGLEWIGWIYPRDGRTTYNEKFKAKATLTVDTSSTTAYMELHSLTSEDSAVYFCARSSPFGYWGQGTTLTVSS
VL: DIQMTQSSSYLSVSLGGRVTITCKASDHINNWLAWYQQKPGNAPRLLISGATSLETGVPSRFSGSGSGKDYTLSITSLQTEDAATYHCHQYWSIPYTFGGGTKVEIK
notes: member of the group m16; also called mAb 10E10; mouse anti-canine IL-4Rα monoclonal antibody 10E10
In the case of B1, in assay [1], the binding result is given as “binds”.

B2: mouse anti-canine IL-4Rα monoclonal antibody 2E2 (antibody, V domains shown)
VH: EVKLVESGGGLVQPGGSLKLSCVASGFTFSDYHMHWVRQTPEKRLEWVAYISKGGGSTYYPDTEKGRFTISRDNAKNTLYLQMSRLKSEDTAMYYCARSPGPSSFYWYFDVWGTGTTVTVSS
VL: DIQMTQSPASLSASVGETVTITCRASENIYSYLAWYQQKQGKSPQLLVYNAKTLAEGVPSRFSGSGSGTQFSLKINSLQPEDFGSYYCQHHYGIPVTVGVGTKLELK
notes: Hybridoma-derived mouse antibody; also called mAb 2E2
Usually IC50 stands for the concentration needed to halve the response being measured. The low end stands for greater potency in that assay, the high end for weaker potency in that assay. In general, EC50 refers to the midpoint of the concentration-response curve. With B2, the IC50 in assay [2] was 2.1 nM. For the same molecule, the EC50 in assay [3] came to 1.2 nM.

B3: mouse anti-canine IL-4Rα monoclonal antibody 4D8 (antibody, V domains shown)
VH: EVTLVESGGGLVQPGGSLKLSCAASGFTFSDYYMYWVRQTPEKRLEWVAYISPGGGSTYYPDTIKGRFTISRDNAKNTLYLQMSRLKSEDTAMYYCTRHGSPYGSSRGAWFAYWGQGTLVTVSA
VL: DIQMTQSPASLSASVGETVTITCRASENIYSYLAWYQQKQGKSPQLLVYNGKTLAEGVPARFSGSGSGTQFSLKINSLQPEDFGSYYCQHHDGIPVTFGAGTKLELK
notes: Hybridoma-derived mouse antibody; also called mAb 4D8
In turn, B3 showed an IC50 in assay [2] of 4.2 nM. Further, the half-maximal effective concentration (EC50) in assay [3] is 1.1 nM.

B4: 1A3 (antibody, V domains shown)
VH: EVQLVESGGDLVKPGGSLKLSCAASGFTFSDFGMHWVRQAPEKGLGWVAYISSGSGTIYYADTVRGRFTISRDNVKNTLFLQMTSLRSEDTAMYYCVRGDLYYGSSFDAYWGRGTLVTVSA
VL: QIVLSQSPAILSASPGEKVTMTCRASSSVSFMFWYQQKPGSSPKPWIYDTSNLASGVPARFSGSGSGTSYSLTISRVEAEDAATYYCQQWSSNPLTFGAGTKLELK
notes: member of the group m16; also called mAb 1A3; mouse anti-canine IL-4Rα monoclonal antibody 1A3
A word on the EC50 (read off the curve): it is the concentration that produces a half-maximal response. Take B4: the “EC50 (read off the curve)” value in assay [1] is about 0.1 nM.

B5: 11D3 (antibody, V domains shown)
VH: QIQLVQSGPELKKPGETVKISCKASGYIFTTYGMYWVKQAPGKGLKWMGWINTYSGVPTYVDDFKGRFAFSLETSASTAYLQINNLKNEDTATYFCVVAGWFAYWGQGTLVTVSA
VL: DIKMTQSPSSMYASLGERVTITCKASQDIKSYLSWFQQKPGKSPKTLIYRANILIDGVPSRFSGSGSGQDYSLTISSLEYEDMGIYYCLQYDEFPYTFGGGTKLEIK
notes: member of the group m16; also called mAb 11D3; mouse anti-canine IL-4Rα monoclonal antibody 11D3
Consider B5, for which the “EC50 (read off the curve)” value in assay [1] was about 0.1 nM.

B6: 1A9 (antibody, V domains shown)
VH: QVPLQQSGPELVKPGASVKISCKASGYAFSSSWMNWVKQRPGKGLEWIGRIYPGDGDTKYNGKFKGKATLTADKSSSTAYMQLSSLTSEDSAVYFCARDDYDEASWGQGTLVTVSA
VL: DIVMTQSQKFMSTSVGDRVSITCKASQNVRSAVAWYQQKPGQSPKSLIYLASNRHTGVPDRFTGSGSGTDFTLTISNVQSEDLADYFCLQHWNYPFTFGSGTKLEIK
notes: member of the group m16; also called mAb 1A9; mouse anti-canine IL-4Rα monoclonal antibody 1A9
On to B6, for which the “EC50 (read off the curve)” value in assay [1] was about 0.2 nM.

B7: mouse anti-canine IL-4Rα monoclonal antibody 11B6 (antibody, V domains shown)
VH: EVQLQESGPGLAKPSQTLSLTCSVTGYSITSDYWNWIRKFPGNKLEYMGYINYSGNTYYNPSLKSRISITRDTSKNQYYLQLNSVTTEDTATYYCARYGGLRQGSWHFDVWGPGTTVTVSS
VL: QIVLTQSPAIMSASPGEKVTISCSASSSVSYMYWYQQKPGSSPKPWIYRTSNLASGVPARFSGSGSGTSYSLTISSMEAEDAATYYCQQYHSYPATFGGGTKLEIK
notes: Hybridoma-derived mouse antibody; also called mAb 11B6
In assay [2], B7 gave a half-inhibitory concentration (IC50) of 53.2 nM. Besides, in assay [1], the 50% effective concentration (EC50 (read off the curve)) is about 0.3 nM. The molecule also had an EC50 in assay [3] of 7.5 nM.

B8: mouse anti-canine IL-4Rα monoclonal antibody 6C12 (antibody, V domains shown)
VH: QIQLIQSGPELKKPGETVKISCKASGYTFTTFGMSWVKQAPGKGLKWMGWISTYSGVPTYADDFKGRFAFSLETSASTAYLQINNLKNEDTASYFCARHTFQSRGLAYWGQGTLVTVSA
VL: DIVMTQSHKFMSTSVGDRVSITCKASQDVITTVAWYQQKPGQSPKLLIYSASYRYTGVPDRFTGSGSGTDFTFTITSVQTEDLAVYYCQQHYSTPWTFGGGTKLEIK
notes: Hybridoma-derived mouse antibody; also called mAb 6C12
In assay [2], B8 displayed an IC50 of 19.3 nM. In addition, the response in assay [3] was half-maximal at 8.6 nM (EC50).

B9: mouse anti-canine IL-4Rα monoclonal antibody 4H3 (antibody, V domains shown)
VH: QVQLQQPGAELVKPGASVKLSCKASGYTFTNYWIHWMKQRPGRGLEWIGRIDPNSGGTKYNEKFKSKATLTVDKPSITAYMQLSSLTSEDSAVYYCAAFGSTYGFAYWGQGTLVTVSA
VL: DIVMSQSPSSLAVSAGEKVTMSCKSSQSLLNSRTRKNYLAWYQQKPGQSPKLLIYWASTRESGVPDRFTGSGSGTDFTLTISSVQAEDLAVYYCKQSYNLYTFGGGTKLEIK
notes: Hybridoma-derived mouse antibody; also called mAb 4H3
B9 yielded an IC50 in assay [2] of 3.9 nM. Further, the EC50 in assay [3] is 1.6 nM.

B10: 10F2 (antibody, V domains shown)
VH: QVHLKESGPGLVAPSQSLSITCTVSGFSLTSYGVSWVRQPPGEGLEWLGVIWGDGSTYFHSALISRLSISKDDSKSQVFLKLNSLQTDDTATYYCAKQGTIYDGYYNYAMDYWGQGTSVTVSS
VL: DIVMSQSPSSLTVSVGEKVTMSCKSSQNLLYGGNQKNYLAWYQQKPGQSPKLLIYWASTRESGVPDRFTGSGSGTDFTLTISSVRAEDLAVYYCQQYYDYPYTFGGGTKLEIK
notes: member of the group m16; also called mAb 10F2; mouse anti-canine IL-4Rα monoclonal antibody 10F2
For B10, in assay [1], the “EC50 (read off the curve)” value was about 0.3 nM.

B11: 1B12 (antibody, V domains shown)
VH: EVQLQQSGPELVKPGASVKISCKASGYTFTDYYMNWVKQSHGKSLEWIGDIIPSNGGTSYNQKFKGKATLTVDKSSSAAYMELRSLTSEDSAVYYCARGISYYGNRYYFTMDYWGQGTSVTVSS
VL: DIVMTQAAPSVPVTPGESVSISCRSSKSLLHSNGNTYLFWFVQRPGQSPQLLIYRMSNLASGVPDRFSGSGSGTAFTLRISRVEAEDVGVYYCMQHLEYPFTFGSGTKLDIK
notes: member of the group m16; also called mAb 1B12; mouse anti-canine IL-4Rα monoclonal antibody 1B12
As to B11, the binding result in assay [1] is reported as “binds”.
